Data from CN112159475A (NANJING KAEDI BIOTECH INC, dated 2021).

T1: 融合至人IgG1 Fc段的人Siglec-15胞外结构域的重组蛋白Siglec-15-Fc (human, UniProt Q6ZMC9 20-263)
T1 construct: extracellular domain; also called 人Siglec-15重组蛋白; Siglec-15-Fc重组蛋白; not shown: human IgG1 Fc segment
T1 sequence (looked up): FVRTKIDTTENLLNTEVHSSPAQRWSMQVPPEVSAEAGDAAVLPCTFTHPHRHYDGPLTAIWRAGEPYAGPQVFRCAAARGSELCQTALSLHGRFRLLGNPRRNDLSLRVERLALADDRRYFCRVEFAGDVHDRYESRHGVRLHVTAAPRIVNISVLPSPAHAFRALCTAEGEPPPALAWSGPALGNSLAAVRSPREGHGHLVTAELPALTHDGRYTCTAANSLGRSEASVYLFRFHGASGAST


Biological target: T1, 融合至人IgG1 …
Test: indirect ELISA, plate coated with 0.5 ug/ml Siglec-15-Fc, purified antibody titrated from 10 ug/ml

EC50 | Binder
1.97 ng/mL | KD075-C9 (antibody, V domains shown) VH: not shown VL: DIVMTQSHKFMSTSVGDRVSITCKASQDVSTAVVWYQQKPGQSPKLLIDSASYRYTGVPDRFTGSGSGTDFTFTISSVQAEDLAVYYCQQHYSTPRTFGGGTKLEIK
2.3 ng/mL | KD075-C18 (antibody, V domains shown) VH: not shown VL: DIVMTQSHKFMSTSVGDRVSITCKASQDVSTAVAWYQQKLGQSPKLLISSASYRYTGVPDRFTGSGSGTDFTFTISSVQAEDLAVYYCQQHYSTPRTFGGGTKLEIK
2.41 ng/mL | KD075-C40 (antibody, V domains shown) VH: EVRLQQSGPELVKPGASVKISCKASGYTFTDYNIHWMKQSHGKSLEWIGYIYPSFGGTAYNQKFKSKATLTVDNSSSTAYMEFRSLTSEDSAVYFCAVYGNYEGFAYWGQGTLVTVSA VL: ENVLTQSPAIMSASLGEKVTMSCRASSSVNYMYWYQQKSDASPKLWIYYTSNLAPGVPARFSGSGSGNSYYLTISSMEGEDAATYYCQQFTSSPWTFGGGTKLEIK
2.27 ng/mL | KD075-C30 (antibody, V domains shown) VH: DVQLVESGGGLVQPGGSRKLSCAASGFTFSSFGMHWVRQAPEKGLEWVAYISSGSSSIYYADTVKGRFTISRDNPKNTLFLQMTSLRSEDTAMYYCARTFPMDYWGQGTSVTVSS VL: QAVVTQESALTTSPGETVTLTCRSSTGAVTISNYANWVQEKPDHLFTGLIGGTYNRSPGVPARFSGSLIGDKAALTITGAQTEDEAIYFCALWYSNHWVFGGGTKLTVL
2.4 ng/mL | KD075-C31 (antibody, V domains shown) VH: DVQLVESGGGLVQPGTSRKLSCTASGFTFSSFGMHWVRQAPEKGLEWVAYISSGSSSIYYADTVKGRFTISRDNPKNTLFLQMTSLRSEDTAIYYCARTFPMDYWGQGTSVTVSS VL: QAVVTQESALTTSPGETVTLTCRSSTGAVTISNYANWVQEKPDHLFTGLIGGTYNRSPGVPARFSGSLIGDKAALTITGAQTEDEAIYFCALWYSNHWVFGGGTKLTVL
2.25 ng/mL | KD075-C52 (antibody, V domains shown) VH: EVQLVESGGGLVKPGGSLKLSCAASGFTFSYYAMSWVRQTPEKRLEWVATVSDVDDYTYYPDNVKGRFNISRDNAKNNLYLQMRHLKSEDTAMYYCVRDGSYGWYFDVWGTGTTVTVSS VL: DIVMTQSPSSLTVTAGEKVTMSCKSSQSLLNSGNQKNYLTWYQQKPGQTPKLLIYWASTRESGVPDRFTGSGSGTDFTLTISSVQAEDLAVYYCQNDYSYPLTFGTGTKLELK
2.29 ng/mL | KD075-C46 (antibody, V domains shown) VH: EVKLVESEGGLVQPGSSMKLSCTASGFTFSDYYMAWVRQVPEKGLEWVAKINYDGSSTYYLDSLKSRFIISRDNAKNILYLQMSSLKSEDTATYYCARSYDYDGYYFDYWGQGTTLTVSS VL: DIVLTQSPASLAMSLGKRATISCRASESVSIIGTNLIHWYQQKPGQPPKLLIYHASNLETGVPARFSGSGSRTDFTLTIDPVEEDDVAIYYCLQSRKIPWTFGGGTKLEIK
